Consider 5 molecules from patent publication US20070178531A1 (BIOCHECK, published 2007).

Experiment [1] concerns the target T1, Human Id2: Histidine (human, UniProt Q02363 1-134, limits assumed).
T1 construct: Fusion protein made in E. coli from vector pGW07; also called h-Id2: His; not shown: His tag
T1 sequence (looked up): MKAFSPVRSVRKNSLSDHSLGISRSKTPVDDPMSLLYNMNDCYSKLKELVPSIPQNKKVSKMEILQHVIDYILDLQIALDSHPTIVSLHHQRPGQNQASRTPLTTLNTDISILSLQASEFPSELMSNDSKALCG
Kind of experiment: ELISA, Ab 0.010 µg/ml. As for the experimental part: (§1) The rabbit monoclonal anti-human Id3 (clone #3-3) and the rabbit monoclonal anti-mouse/human Id3 (clones #6-1, 16-1, 17-3, and 42-1) produced in Example 6 were tested reactivity against the following antigens: mouse Id1:His, human Id1:His, mouse Id2:His, human Id2:His, mouse Id3:His, human Id3:His, mouse Id4:His, human Id4:His and GST.
(§2) 1. Microtiter wells (prepared in accordance with Example 6) were coated (0.1 μg/well) with mouse Id1:His, human Id1:His, human Id2:His, human Id3:His, and 1.0 μg/well with GST. [0155] 2. Antibody Diluent: 0.25% (w/v) BSA in 0.015M KPO₄ Buffer, 0.85% (w/v) NaCl, 0.1% (w/v) NaN₃, pH=7.40 [0156] 3. Rabbit monoclonal anti-human Id3 (clone #3-3) prepared in Example 7 was diluted to […] with the antibody diluent. […] 4. Rabbit monoclonal anti-mouse/human Id3 (clones #6-1, 16-1, 17-3, 42-1) prepared in Example 7 was diluted to 0.005, 0.010, 0.025, 0.05, 0.10, 0.25, and 0.50 μg/ml with the antibody diluent. […] 5. Conjugate Diluent: 50% (v/v) which consists of an aqueous solution containing Fetal Bovine Serum in 0.05 M Tris, 1% (v/v) Proclin-300, pH 7.6. [0159] 6. Conjugate: Goat anti-rabbit IgG (H+L)-HRP conjugate. [0160] 7. TMB reagent. […] 8. Stop solution (1 N HCI). Method
(§3) 1. Dispense 100 μL of antibody diluent, diluted rabbit monoclonal human Id3, and mouse/human Id3 hybridoma supernatants into appropriate wells. […] 2. Incubate at room temperature with mechanical shaking at 750 rpm for 90 minutes. [0165] 3. Remove the incubation mixture by flicking plate content into an appropriate waste container followed by rinsing the wells 5 times with distilled water. [0166] 4. Strike the wells sharply onto absorbent paper or paper towels to remove all residual water droplets. [0167] 5. Dispense 100 μL of 1:50,000 Goat Anti-Rabbit IgG-HRP Conjugate Reagent into each well. Gently mix for 5 seconds. [0168] 6. Incubate at room temperature with mechanical shaking at 750 rpm for 90 minutes. [0169] 7. Repeat procedures 3 and 4. [0170] 8. Dispense 100 μL of TMB Reagent into each well. Gently mix for 5 seconds. [0171] 9. Incubate at room temperature with mechanical shaking at 750 rpm for 20 minutes. […] 10.
Background: In an ELISA, binding on a coated surface is turned into a signal by an enzyme label.

Experiment [2] addresses T1, Human Id2: Histidine. Kind of experiment: ELISA, Ab 0.500 µg/ml. As for the experimental part: as §1, §2, §3
In a further experiment the target is T2, Mouse Id1: Histidine (mouse, UniProt P20067-2 1-148, limits assumed).
T2 construct: Fusion protein made in E. coli from vector pGW07; also called m-Id1-His; not shown: His tag
T2 sequence (looked up): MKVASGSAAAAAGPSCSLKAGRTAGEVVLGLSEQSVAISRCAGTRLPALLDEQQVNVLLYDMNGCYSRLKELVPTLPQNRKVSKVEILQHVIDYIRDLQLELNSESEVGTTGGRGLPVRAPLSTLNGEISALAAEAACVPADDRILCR
As to the kind of experiment: ELISA, Ab 0.500 µg/ml. As for the experimental part: as §1, §2, §3

Experiment [3] has as its target T3, Human Id1: Histidine (human, UniProt P41134 1-155, limits assumed).
T3 construct: Fusion protein made in E. coli from vector pGW07; also called h-Id1: his; not shown: His tag
T3 sequence (looked up): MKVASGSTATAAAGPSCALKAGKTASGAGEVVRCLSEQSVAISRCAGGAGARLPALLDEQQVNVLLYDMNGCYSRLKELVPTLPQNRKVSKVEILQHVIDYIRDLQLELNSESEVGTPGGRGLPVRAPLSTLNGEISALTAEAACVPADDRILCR
As to the kind of experiment: ELISA, Ab 0.500 µg/ml. As for the experimental part:
as §1, §2, §3

The target of experiment [4] is T4, glutathione S-transferase (GST) (UniProt P08515 1-218 = GST).
T4 construct: also called carrier protein GST
T4 sequence (P08515 whole entry): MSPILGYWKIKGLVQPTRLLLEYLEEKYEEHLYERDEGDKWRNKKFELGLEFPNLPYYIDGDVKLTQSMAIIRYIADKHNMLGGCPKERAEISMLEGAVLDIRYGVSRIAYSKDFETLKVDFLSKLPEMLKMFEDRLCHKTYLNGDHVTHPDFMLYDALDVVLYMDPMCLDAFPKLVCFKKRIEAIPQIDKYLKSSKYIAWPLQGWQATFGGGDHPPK
Kind of experiment: ELISA, Ab 0.500 µg/ml. Here is the method:
as §1, §2, §3

In another experiment the target is T5, Mouse Id2: Histidine (mouse, UniProt P41136 1-134, limits assumed).
T5 construct: Fusion protein made in E. coli from vector pGW07; also called m-Id2: His; not shown: His tag
T5 sequence (looked up): T1 sequence (looked up) with S60T, A131V
Kind of experiment: ELISA, Ab 0.500 µg/ml. Here is the method:
as §1, §2, §3

Experiment [5] has as its target T1, Human Id2: Histidine. As to the kind of experiment: ELISA, Ab 0.005 µg/ml. As for the experimental part: as §1, §2, §3
The target of experiment [6] is T3, Human Id1: Histidine. As to the kind of experiment: ELISA, Ab 0.005 µg/ml. As for the experimental part:
as §1, §2, §3

Experiment [7] concerns the target T6, Human Id3: Histidine (human, UniProt Q02535 1-119 at identity 1.00)).
T6 construct: Fusion protein made in E. coli from vector pGW07; also called h-Id3: His; Human Id3 (coated wells); not shown: His tag
T6 chain: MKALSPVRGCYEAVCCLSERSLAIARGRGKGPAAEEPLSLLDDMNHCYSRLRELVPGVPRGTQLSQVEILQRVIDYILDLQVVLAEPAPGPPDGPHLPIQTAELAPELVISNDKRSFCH
Kind of experiment: ELISA, Ab 0.010 µg/ml. As for the experimental part: as §1, §2, §3

A further experiment concerns the target T7, Mouse Id3: Histidine (mouse, UniProt P41133 1-119).
T7 construct: Fusion protein made in E. coli from vector pGW07; also called m-Id3: His; Mouse Id3 (coated wells); not shown: His tag
T7 sequence: T6 chain with G31S, A33S, A34T, A105T, N112K
Kind of experiment: ELISA, Ab 0.500 µg/ml. Here is the method: as §1, §2, §3

Experiment [8] has as its target T6, Human Id3: Histidine. Kind of experiment: ELISA, Ab 0.500 µg/ml. Here is the method:
as §1, §2, §3

Changes are numbered by the printed parent chain.

B1: rabbit monoclonal anti-human Id3, clone #BCH-4/#3-3 (antibody, V domains shown)
VH: QSVEESGGRLVTPGTPLTLTCTVSGIDLSSYAMSWVRQAPGKGLEWIGVIFPSNNVYYASWAKGRFTISKTSTTVDLKITSPTTEDTATYFCASMGAFDSWGPGTLVTVSS
VL: QVLTQTPSPVSAAVGGTVTINCQASQSIYNDNDLAWFQQKPGQPPKLLIYDASTLTSGVPSRFKGSGSGTQFTLTISDLDCDDAATYYCAARYSGNIYGFGGGTEVVVK
notes: Rabbit IgG from a rabbit hybridoma; also called h Id3 MoAb 3-3
For the molecule B1, the A450 with Human Id2: Histidine [1] came out at 0.043 A450; in the experiment with Human Id2: Histidine [2], 0.047 A450; with Mouse Id1: Histidine, 0.05 A450; with Human Id1: Histidine [3] it was 0.048 A450; in [4] it was 0.05 A450; with Mouse Id2: Histidine, 0.05 A450. In addition, the A450 with Human Id2: Histidine [5] was 0.044 A450; with Human Id1: Histidine [6] it was 0.047 A450.

B2: rabbit monoclonal anti-mouse/human Id3, clone #BCH-4/#16-1 (antibody, V domains shown)
VH: QSVEESGGRLVTPGTPLTLTCTASGFSLSSYYIHWVRQAPGKALEWIGYISDGGTTYYASWAKGRFTISKTSSTTVDLKMTSLTTEDTATYFCARQGFNIWGPGTLVTVSL
VL: AVLTQTPSPVSAAVGGTVTISCQSSQSVYNNNWLSWFQQKSGQPPKLLIYETSKLESGVPSRFKGSGSGTQFTLTIIDVQCDDAATYYCLGGYWTTSDNNIFGGGTEVVVK
notes: Rabbit IgG from a rabbit hybridoma; also called m/h Id3 MoAb 16-1
With B2, the A450 with Human Id2: Histidine [1] came to 0.044 A450; with Human Id3: Histidine [7] it was 0.391 A450; with Human Id2: Histidine [2], 0.058 A450; with Mouse Id1: Histidine it was 0.047 A450; in the experiment with Mouse Id3: Histidine, 3.61 A450; with Human Id1: Histidine [3] it was 0.051 A450. Further, the A450 in [4] was found to be 0.053 A450; with Mouse Id2: Histidine it was 0.067 A450; with Human Id3: Histidine [8] it was 3.37 A450; with Human Id2: Histidine [5] it was 0.046 A450; in the experiment with Human Id1: Histidine [6], 0.042 A450.

B3: rabbit monoclonal anti-mouse/human Id3, clone #BCH-4/#17-3 (antibody, V domains shown)
VH: B2 VH with S30N, Y31V, A43G, G54D, T56A, Y57R, S60T, D77N
VL: B2 VL with T19S, Y29W, S41P, I77S, I101V
notes: Rabbit IgG from a rabbit hybridoma; also called m/h Id3 MoAb 17-3; BCH-3/#17-3
For B3, the A450 with Human Id2: Histidine [1] was found to be 0.043 A450; with Human Id3: Histidine [7] it was 0.581 A450; with Human Id2: Histidine [2] it was 0.053 A450; in the experiment with Mouse Id1: Histidine, 0.06 A450; with Mouse Id3: Histidine, 3.74 A450; with Human Id1: Histidine [3], 0.049 A450. In addition, the A450 in [4] was 0.053 A450; with Mouse Id2: Histidine it was 0.069 A450; with Human Id3: Histidine [8], 3.69 A450; with Human Id2: Histidine [5], 0.045 A450; with Human Id1: Histidine [6] it was 0.044 A450.

B4: rabbit monoclonal anti-mouse/human Id3, clone #BCH-4/#6-1 (antibody, V domains shown)
VH: B2 VH with S30N, Y31V, A43G, G54D, T56A, Y57R, S60T, D77N
VL: B2 VL with T19S, Y29W, S41P, I77S, I101V
notes: Rabbit IgG from a rabbit hybridoma; also called m/h Id3 MoAb 6-1
For B4, the A450 with Human Id2: Histidine [1] stood at 0.044 A450; with Human Id3: Histidine [7] it was 0.491 A450; with Human Id2: Histidine [2] it was 0.063 A450; in the experiment with Mouse Id1: Histidine it was 0.051 A450; with Mouse Id3: Histidine it was 3.81 A450; with Human Id1: Histidine [3], 0.048 A450. The A450 was determined as 0.054 A450 in [4]; 0.066 A450 with Mouse Id2: Histidine; 3.56 A450 in the experiment with Human Id3: Histidine [8]; 0.045 A450 in the experiment with Human Id2: Histidine [5]; 0.044 A450 with Human Id1: Histidine [6].

B5: rabbit monoclonal anti-mouse/human Id3, clone #BCH-4/#42-1 (antibody, V domains shown)
VH: B2 VH
VL: B2 VL with T95S
notes: Rabbit IgG from a rabbit hybridoma; also called m/h Id3 MoAb 42-1
Turning to B5, the A450 with Human Id2: Histidine [1] turned out to be 0.046 A450; in the experiment with Human Id3: Histidine [7], 0.713 A450; with Human Id2: Histidine [2] it was 0.057 A450; with Mouse Id1: Histidine, 0.053 A450; in the experiment with Mouse Id3: Histidine it was 3.63 A450; in the experiment with Human Id1: Histidine [3], 0.047 A450. Moreover, the A450 in [4] turned out to be 0.049 A450; with Mouse Id2: Histidine, 0.075 A450; with Human Id3: Histidine [8] it was 3.75 A450; with Human Id2: Histidine [5], 0.043 A450; with Human Id1: Histidine [6] it was 0.046 A450.
